These are literature values, as cited in publication PMC4856733.

This series deals with vinculin tail tail (Homo sapiens) (UniProt P18206).

Turning to “vinculin head head (from UniProt P18206)”, the Kd (commonly the concentration at which binding is half-saturated) was less than 1 nM.
